This is an account of results in US9850293B2, “Targeting trastuzumab-resistant HER2+ breast cancer with a HER3-targeting nanoparticle” (priority 2014, dated 2017).

The nature of data set [1]: HerDox stability under storage conditions. The format is physicochemical. As to conditions: up to 12 days. Here is the method:
FIG. 6 (A) illustrates conjugate stability under different storage conditions, or in serum. HerDox was incubated up to 12 days at 4° C., Room Temperature, or 37° C. Samples were filtered through ultrafiltration spin columns every other day.
The inventors tested the stability of HerDox over 12 days under different storage temperatures: 40° C., room temperature, or 37° C. […] The inventors also examined HerDox stability in serum-containing media at 37° C. […] Dox retention in the conjugate was also assessed by eluting the conjugate from the beads at each time point.

The test system of another data set is MDA-MB-435. Nature of the data set: Cytotoxicity on cell lines (HerDox dose curves). As to conditions: concentration yielding 50% reduction in cell survival, mean ± SD. The format is cell-based, human. Here is the method:
FIG. 17 (B) depicts toxicity to cells displaying differential HER2. Cytotoxicities from a range of HerDox doses were assessed on each cell line by metabolic assay and confirmed by crystal violet stain. LD50 values shown in log scale were determined by non-linear regression analyses of HerDox dose curves using a scientific graphing program and confirmed using a calculator. The relative HER2 level of each cell line is shown next to each LD50 value.
The inventors measured cell surface levels of HER subunits on various cell lines and types described herein, as previously described levels may not reflect the actual levels in the available cells used. The inventors acquired the indicated cell lines from ATCC and the NIH/NCI and profiled these with respect to HER subunit levels (FIG. 17 (A)). To assess whether HerDox induces toxicity in accordance to HER2 levels, the inventors selected lines displaying HER2 at relatively high (SKBR3), moderate (MDA-MB-435, MDA-MB-453, HeLa), and low to undetectable (MDA-MB-231) levels, and performed cytotoxicity dose curves.

Data set [2] is described as follows: Stability in mouse whole blood. The format is in vitro ADME. To be noted: 0.12 mg/mL Dox, 37° C., up to one hour. The method, then:
FIG. 13 illustrates stability in mouse whole blood. […] As 0.5 mM EDTA was used as an anticoagulant, HerDox in EDTA alone (− blood) was processed in parallel. Bars represent fluorescence of retained (retentates) or released (filtrates) Dox as a percentage of the total fluorescence of each sample. Scale of Y-axis is adjusted to show presence of filtrate samples. N=3 per treatment.
(A) depicts a graphic of HerDox formed by non-covalent, serum-stable self-assembly, showing HerPBK10 with functional domains delineated, and electrophilic binding with Dox-intercalated ds-oligo. (B) depicts a CryoEM image of HerDox particles. (C) is a HPLC chromatogram of HerDox showing elution profile of Dox absorbance. […] (D) illustrates the protection of ds-oligo from serum nuclease digestion by HerPBK10. The ds-oligo was incubated for 20 min in 100% mouse serum (Abcam, Cambridge, Mass., USA) before PAGE and EtBr staining to visualize the DNA. (E) illustrates that HerDox remains stable in blood. […] N=3. *, p<0.05, compared to respective retentates.
As the anticoagulant, 0.5 mM EDTA, was present in the blood collection, parallel samples were incubated at 37° C. in EDTA alone. Samples representing input HerDox (before incubation in blood) were incubated at 37° C. in HEPES-buffered saline.

A further data set concerns HER2+ tumors. Nature of the data set: HerDox and Dox biodistribution (Dox fluorescence imaging). An excerpt:
FIG. 11 (A) depicts imaging of live mice after IV delivery of HerDox. Tumors are indicated by arrows.

Another data set concerns MDA-MB-435 cells. Nature of the data set: Trastuzumab pre-treatment before HerDox, cell survival. The format is cell-based, human. To be noted: MDA-MB-435, 24 h pre-treatment. The source says:
N=3. […] N=3. […] N=3. […] N=3. […] N=3. […] N=3.

The test system of a further data set is JIMT-1 cell line. As to the kind of experiment: Tumor cell killing in culture, pre-existing resistance. As to conditions: JIMT-1, dose-dependent, maximum. It is filed as cell-based, human. Here is the method: N=3. *, p<0.05 compared to parental. […] N=3. […] Treatments were compared to mock (saline)-treatment. […] N=3. *, p<0.05 compared to parental. […] N=3.
The efficacy of HerDox was also examined on a cell line with pre-existing resistance.
The contribution of HER3 to targeted toxicity was evaluated by assessing whether pre-adsorbing HerDox with a peptide comprising the ligand-binding domain of HER3 blocked cytotoxicity.

Another data set deals with MDA-MB-435 (HER2+). As to the kind of experiment: Targeted toxicity, cell survival by MTT assay. The format is cell-based, human. Here is the method: FIG. 7 illustrates targeted toxicity. […] Cell titer was determined by metabolic (i.e. MTT) assay. FIG. 7 upper panel illustrates the effect of HerDox on MDA-MB-231 (HER2−) and MDA-MB-435 (HER2+) cell survival. Relative surviving cell numbers are represented as a % of corresponding untreated cells. […] Relative survival (as % of untreated cells) is shown for Day 3 of treatment.
FIG. 8 illustrates receptor specificity. MDA-MB-435 (HER2+) cells were incubated with free ligand (eHRG) at 10× molar excess of HerDox for one hour at 4° C. Media was aspirated to remove free eHRG and fresh media containing HerDox (0.5 μM) was added to cells. Cell survival was measured by MTT assay and represented as a % of relative untreated cell numbers.
N=3. […] Bar, about 4 μm. […] (E) compares HerDox and Dox on off-target tissue. […] Green fluorescence in nuclei indicates apoptosis (positive TUNEL stain).
By three days, HerDox reduced HER2+ cell numbers by over 75% whereas HER2− cell survival was unaffected (FIG. 7). […] These findings emphasize the importance of targeting by showing that the untargeted drug affects nontarget (i.e. HER2−) cells. […] To test receptor targeting, the inventors used free heregulin ligand (Her or eHRG) as a competitive inhibitor. […] As a final in vitro challenge, the inventors tested whether HerDox induces toxicity specifically to HER2+ cells in a mixed culture of HER2+ and HER2− breast cancer cells. To do this, the inventors produced a HER2− cell line tagged with green fluorescent protein (GFP) for cell identification in the mixed culture (FIG. 9-A). […] Altogether, these findings indicate that HerDox has the capacity to preferentially target toxicity to HER2+ cells. […] In serum-containing media, no such loss from HerDox is detectable. […] Co-migration of HerPBK10 bands further verified that the conjugates remained intact in the cell media.
(In general: Tetrazolium assays rely on reduction of a dye to a coloured formazan, in cell work by metabolically active cells.)

In a further data set the test system is SKOV3. Nature of the data set: Cytotoxicity on cell lines (HerDox dose curves). As to conditions: concentration yielding 50% reduction in cell survival, mean ± SD. The format is cell-based, human.
[3] abbreviates: single tail vein injection, live imaging.
The mark [4] stands for this setting: tissues harvested ~3 h after injection.

A value given as a limit tells only on which side of the number the result lay.

A word on the EC50: it is the concentration giving half of the maximal effect. The low end stands for higher potency in that assay, the high end for lower potency in that assay.

B1: HerDox: non-covalent complex of HerPBK10, double-stranded oligonucleotide and intercalated Dox (Unit A+Unit B+Unit C) (conjugate)
chain: SHLVKCAEKEKTFCVNGGECFMVKDLSNPSRYLCKCQPGFTGARCTENVPMKVQNQEKAEELYQKMRRAAMYEEGPPPSYESVVSAAPVAAALGSPFDAPLDPPFVPPRYLRPTGGRNSIRYSELAPLFDTTRVYLVDNKSTDVASLNYQNDHSNFLTTVIQNNDYSPGEASTQTINLDDRSHWGGDLKTILHTNMPNVNEFMFTNKFKARVMVSRLPTKDNQVELKYEWVEFTLPEGNYSETMTIDLMNNAIVEHYLKVGRQNGVLESDIGVKFDTRNFRLGFDPVTGLVMPGVYTNEAFHPDIILLPGCGVDFTHSRLSNLLGIRKRQPFQEGFRITYDDLEGGNIPALLDVDAYQASLKDDTEQGGGGAGGSNSSGSGAEENSNAAAAAMQPVEDMNDHAIRGDTFATRAEEKRAEAEAAAEAAAPAAQPEVEKPQKKPVIKPLTEDSKKRSYNLISNDSTFTQYRSWYLAYNYGDPQTGIRSWTLLCTPDVTCGSEQVYWSLPDMMQDPVTFRSTRQISNFPVVGAELLPVHSKSFYNDQAVYSQLIRQFTSLTHVFNRFPENQILARPPAPTITTVSENVPALTDHGTLPLRNSIGGVQRVTITDARRRTCPYVYKALGIVSPRVLSSRTFKKKKKKKKKK
modifications: left off: small tags and cut ends
In turn, B1 gave a product remaining intact in data set [1] (4° C.) of 100%. Moreover, in data set [1] (room temperature and 37° C.), the “effect of storage on drug incorporation” value was “appeared to enhance the incorporation of the drug”. The molecule further had an EC50 in the data set with MDA-MB-435 of 0.74 ± 0.07 µM. Besides, the “loss of Dox from conjugate in whole blood” value in data set [2] was “no detectable loss of Dox from the conjugate”. Also, in the data set with HER2+ tumors (setting [3]), the “time fluorescence remained detectable in the tumors” value is reported as “up to 100 min” and the “time of fluorescence accumulation at the tumors” value was at most 20 min. Moreover, in the data set on HER2+ tumors (setting [4]), the fluorescence in kidneys result was “barely detectable”; the fluorescence in liver entry is “substantially lower levels of fluorescence”; the “fluorescence in other tissues (heart, spleen, lungs, skeletal muscle)” value is on record as “did not exhibit any fluorescence”; the fluorescence in tumors entry was “intense fluorescence in the tumors”. In addition, in the data set with MDA-MB-435 cells, the “enhancement of HerDox toxicity by trastuzumab pre-treatment” value was “modest enhancement in toxicity”. Besides, the cells killed result in the data set on JIMT-1 cell line was “up to 90%”. In addition, the “reduction of HER2+ cell numbers” value with MDA-MB-435 (HER2+) (0.5 μM with respect to Dox, by three days) was “over 75%”. Also, the “cell killing with free heregulin ligand as competitive inhibitor” value with MDA-MB-435 (HER2+) (eHRG at 10× molar excess, HerDox 0.5 μM) is listed as “completely inhibited cell killing”. For the same molecule, the EC50 with SKOV3 worked out at 0.18 ± 0.03 µM.
